This is an account of results in patent US11834499.

Assay [1] has as its target CD16A (UniProt P08637). Description: flow cytometry; Jurkat Lucia CD16A; only anti-his 2o AF647 652513 7,290.88.
Assay [2] addresses CD16A (UniProt P08637). Nature of the assay: flow cytometry, 2ug/reaction; Jurkat-Lucia-NFAT-CD16 cells; anti-his 2o only 18,863.83. (In general: Flow cytometry measures light scatter and fluorescence of single cells or particles in a stream.)
The target in assay [3] is human Claudin-18.2 (CLDN18.2) (human). Nature of the assay: flow cytometry, 2ug/reaction, trypsin to detach cells; HUPT4 cells; anti-his 2o only 12,730.43; same construct on ARK2 cells 37,777.38 (2o only 35,124.48).
Assay [4] shares this target. Description: flow cytometry; HUPT4 (CLDN18.2+); only anti-his 2o AF647 652513 12,046.33; same construct on ARK2 (CLDN18.2-) 39,787.16 (2o only 36,416.11).
The target in a further assay is CD3 on Jurkat cells (UniProt P07766). Description: flow cytometry, Jurkat cells, anti-His secondary; A01 Jurkat-2o alone 1,501.76.
CD3 on Jurkat cells, sequence (P07766 23-207 limits assumed): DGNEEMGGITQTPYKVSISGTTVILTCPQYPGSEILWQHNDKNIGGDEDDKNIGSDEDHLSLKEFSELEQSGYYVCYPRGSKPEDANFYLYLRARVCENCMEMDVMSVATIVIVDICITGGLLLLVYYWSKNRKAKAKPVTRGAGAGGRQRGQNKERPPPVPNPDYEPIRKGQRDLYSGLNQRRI

CD16A, sequence (P08637 17-254 limits assumed, form in doubt): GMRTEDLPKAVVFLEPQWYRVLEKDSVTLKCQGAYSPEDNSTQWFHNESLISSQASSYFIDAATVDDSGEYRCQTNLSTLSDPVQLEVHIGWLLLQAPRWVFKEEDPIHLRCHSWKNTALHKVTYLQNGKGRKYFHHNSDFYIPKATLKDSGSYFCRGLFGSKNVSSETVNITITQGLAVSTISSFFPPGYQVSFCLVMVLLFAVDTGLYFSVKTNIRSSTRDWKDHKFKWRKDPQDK

For “AFM13 (CD16A-CD30 BiTE) his tagged (bispecific antibody)”, the flow cytometry signal with CD16A [1] stood at 23500; with CD16A [2] it was 76500; in assay [3], 15700; in assay [4], 8940.

In turn, Blincyto-His tag (bispecific antibody) had an FL4-H value printed beside the legend in the assay with CD3 on Jurkat cells of 16300.
